These results are taken from patent publication US20170306005A1 (NASCIENT, published 2017).

Where a chain is given by its changes, count along the chain named. Names and notes keep the numbering of the source. Bounds are passed on as bounds.

In assay [1] the target is T1, human tenascin-C rCd4-His-FBG (rat; human, UniProt P05540 207-392, limits assumed).
T1 construct: domain: domains 3 and 4; C-terminal FBG fusion; biotinylated in the ELISA and HTRF screens; also called Hu TNC; human TNC rCd4-His-FBG; not shown: 6His tag
T1 sequence (chain (part 1 of 2)): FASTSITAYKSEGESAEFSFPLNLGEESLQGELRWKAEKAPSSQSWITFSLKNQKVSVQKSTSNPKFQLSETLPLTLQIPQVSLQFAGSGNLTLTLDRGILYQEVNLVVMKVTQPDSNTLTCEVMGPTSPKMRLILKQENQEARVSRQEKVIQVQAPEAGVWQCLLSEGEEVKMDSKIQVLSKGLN
T1 sequence (chain (part 2 of 2)): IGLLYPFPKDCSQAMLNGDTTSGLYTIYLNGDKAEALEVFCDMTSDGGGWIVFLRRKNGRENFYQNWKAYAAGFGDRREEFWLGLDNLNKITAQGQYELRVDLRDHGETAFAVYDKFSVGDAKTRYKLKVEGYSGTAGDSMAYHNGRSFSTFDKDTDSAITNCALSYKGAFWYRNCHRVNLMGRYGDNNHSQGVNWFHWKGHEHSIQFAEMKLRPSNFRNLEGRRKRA
Kind of assay: SPR off-rate screen, captured IgG4 supernatant, 25 C. How it is done:
(§1) The 31 scFv of interest were sub-cloned into a human IgG4 expression vector for generation of antibodies as human IgG4 with a hinge-stabilising mutation (S241P; Angal et al, 1993). […] Briefly, surface plasmon resonance (SPR) experiments were performed using a BIAcore T100 instrument and followed the protocol according to the Human antibody capture kit protocol (GE, BR-1008-39). For off-rate screening, 10,000 response units (RU) of anti-human Fc IgG (GE, BR-1008-39) was immobilised on flow-cells (FC1 and FC2) of a Series 5 CM5 dextran sensor chip (BR-1005-30) using EDC/NHS cross-linking chemistry according to the amine coupling kit protocol (GE, BR-1000-50). Culture supernatants containing expressed IgG4 were diluted 1:2 with 2×PBS-T and injected into FC2 (flowrate 5 μl/min, 60 s contact time) to enable antibody capture at 25° C. […] A fixed concentration of antigen (15 nM of human and mouse TNC rCd4-His-FBG and 100 nM of human TNR rCd4-His-FBG) was injected with a flow-path via FC 1 (reference flow cell) and FC 2 (antibody capture flow cell), with a flow rate of 30 μl/min, and the association and dissociation phases measured over 1 and 5 min time periods, respectively. Regeneration of the binding surface employed 3M MgCl₂ with 30 s contact time. Off rates were determined by reference cell subtraction and fitting the sensogram experimental data assuming a 1:1 interaction using BIAevaluation software (GE, BR-1005-97).

For assay [2], the target named is T2, mouse tenascin-C rCd4-His-FBG (rat; mouse, UniProt P05540 207-392, limits assumed).
T2 construct: domain: domains 3 and 4; C-terminal FBG fusion; biotinylated in the ELISA screen; also called Mu TNC; mouse TNC rCd4-His-FBG; not shown: 6His tag
T2 sequence (chain (part 1 of 2)): T1 sequence (chain (part 1 of 2))
T2 sequence (chain (part 2 of 2)): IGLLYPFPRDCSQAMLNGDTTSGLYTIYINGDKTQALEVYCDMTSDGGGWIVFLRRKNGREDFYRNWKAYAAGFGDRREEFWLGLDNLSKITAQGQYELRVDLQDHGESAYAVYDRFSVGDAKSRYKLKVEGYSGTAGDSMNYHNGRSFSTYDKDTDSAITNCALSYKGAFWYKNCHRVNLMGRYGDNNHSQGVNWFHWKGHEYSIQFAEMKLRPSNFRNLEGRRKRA
The description is as above. The procedure:
as §1

Assay [3] has as its target T3, human tenascin-R rCd4-His-FBG (rat; human, UniProt P05540 207-392, limits assumed).
T3 construct: domain: domains 3 and 4; C-terminal FBG fusion; also called Hu TNR; human TNR rCd4-His-FBG; not shown: 6His tag
T3 sequence (chain (part 1 of 2)): T1 sequence (chain (part 1 of 2))
T3 sequence (chain (part 2 of 2)): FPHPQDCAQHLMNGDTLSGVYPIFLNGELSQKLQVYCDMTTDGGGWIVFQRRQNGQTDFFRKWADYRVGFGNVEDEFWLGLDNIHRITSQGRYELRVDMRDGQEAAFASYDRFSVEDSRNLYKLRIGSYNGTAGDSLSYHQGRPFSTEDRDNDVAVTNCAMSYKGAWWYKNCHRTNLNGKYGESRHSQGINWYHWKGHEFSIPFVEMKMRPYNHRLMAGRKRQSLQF
The description is as above. The procedure:
as §1

Assay [4] addresses T1, human tenascin-C rCd4-His-FBG. Description: SPR, captured purified IgG4, 37 C. The procedure:
(§2) Detailed kinetic parameters were evaluated for the 9 prioritised IgG4 antibodies. Binding characteristics were determined for interaction with human, rat and dog TNC rCD4-His-FBG, and human TNR rCD4-His-FBG. Kinetic assays followed essentially the same protocols as for the off-rate determinations described above, with some modifications as follows. […] Purified anti-FBG IgG4 was diluted to a concentration of 3.5 nM in PBS, pH 7.4, 0.05% Tween-20 and injected into FC2 at a flow rate of 10 μl/min, 60 s contact time. […] Antigens were prepared by doubling dilution in PBS, pH 7.4, 0.05% Tween-20 (highest concentration 100 nM except mouse rCD4-His-FBG which was 7 nM). Assays were performed at 37° C. (30 μl/min, 120 s contact time; mouse rCD4-His-FBGFBG 10 μl/min, 60 s contact time), with both the flow cell and injection chamber equilibrated to this temperature. As before, kinetic parameters were determined by reference cell subtraction and fitting the sensogram experimental data assuming a 1:1 interaction using BIAevaluation software (GE, BR-1005-97).

Assay [5] deals with T2, mouse tenascin-C rCd4-His-FBG. Kind of assay: SPR, captured purified IgG4, 37 C. The procedure:
as §2
(SPR reads the build-up and loss of mass on a sensor chip optically.)

B1: 165_13_B6 human IgG4 (antibody, V domains shown)
VH: QVQLVESGGGLVQPGRSLRLSCAASGFTFDDYAMHWVRQAPGKGLEWVSGISGSGGSTYYADSVKGRFTISRDNAKNSLYLQMNSLRAEDTALYYCAKGQKGEGDTFDIWGQGTMVTVSS
VL: DIQMTQSPASLPTPVGDRVTITCRASQYIQGFLNWYQQKPGKAPKLLIYDASNLETGVPSRFSGSGSGTDFTLTISSLQPEDFATYYCQQSYSTPQTFGQGTKVDIKR
notes: human IgG4 with hinge S241P
Usually koff stands for the rate constant with which the complex falls apart. Turning to B1, the koff in assay [1] came out at 5.6e-06 s⁻¹; in assay [2], 6.9e-06 s⁻¹; in assay [3], 0.0037 s⁻¹.

B2: 165_13_D1 human IgG4 (antibody, V domains shown)
VH: B1 VH with Q100T, K101R
VL: B1 VL
notes: human IgG4 with hinge S241P
In the case of B2, the koff is 1.4e-07 s⁻¹ in assay [1], 3.9e-06 s⁻¹ in assay [2] and 0.0043 s⁻¹ in assay [3].

B3: 2A5 human IgG4 (antibody, V domains shown)
VH: EVRLVQSGAEVKKPGASVKVSCKVSGYTLTELSMHWVRQAPGKGLEWMGGFDPEDGETIYAQKFQGRVTMTEDTSTDTAYMELSSLRSEDTAVYYCATAQKETYALTYWGQGTLVTVSS
VL: B1 VL with P14S, K45R, D50A, N53T, E55Q, T56D, S67Y, Q96W, D105E
notes: human IgG4 with hinge S241P; also called 2A5 parent
The term Kd denotes the equilibrium constant for the complex coming apart. Lower therefore signals a tighter complex. The kon is a measure of how fast the partners come together. The low end stands for slow association, the high end for fast association. Consider B3, for which the Kd in assay [4] came out at 23.8 nM; in assay [5], 123 nM. Also, the figures for the koff in assay [4], in assay [5] and in assay [1] were 0.0323 s⁻¹, 0.0106 s⁻¹ and 0.0091 s⁻¹, respectively. Moreover, the kon in assay [4] came out at 1.36e+06 M⁻¹ s⁻¹; in assay [5], 86800 M⁻¹ s⁻¹.

B4: 160_01_G2 human IgG4 (antibody, V domains shown)
VH: B3 VH with A99Y, Q100T, K101L, E102D, T103N, Y104M
VL: B1 VL with P14S, K45R, D50A, N53T, E55Q, T56D, S67Y, Q96W, D105E
notes: human IgG4 with hinge S241P; also called Antibody 160 01 G2 (derived from 2A5)
For the molecule B4, the koff turned out to be 1.25e-05 s⁻¹ in assay [1], 1.39e-05 s⁻¹ in assay [2] and 0.001 s⁻¹ in assay [3].

B5: 162_02_D3 human IgG4 (antibody, V domains shown)
VH: B3 VH with K101I, E102H, T103P, Y104L, A105G
VL: B1 VL with P14S, K45R, D50A, N53T, E55Q, T56D, S67Y, Q96W, D105E
notes: human IgG4 with hinge S241P; also called Antibody 162 02 D3 (derived from 2A5)
On to B5, for which the values for the koff in assay [1], in assay [2] and in assay [3] were 3.9e-07 s⁻¹, 1.06e-06 s⁻¹ and 0.0064 s⁻¹, respectively.

B6: 162_02_H5 human IgG4 (antibody, V domains shown)
VH: B3 VH
VL: DIQMTQSPASLPTSVGDRVTITCRASQYIQGFLNWYQQKPGKAPRLLIYAASTLQDGVPSRFSGSGYGTDFTLTISSLQPEDFATYYCQNQYTGPWTFGQGTKVEIKR
notes: human IgG4 with hinge S241P; also called Antibody 162 02 H5 (derived from 2A5)
For B6, the koff in assay [1] is less than 1e-05 s⁻¹; in assay [2], 0.000167 s⁻¹; in assay [3], 0.082 s⁻¹.

B7: 162_02_C6 human IgG4 (antibody, V domains shown)
VH: B3 VH
VL: B6 VL with T93A
notes: human IgG4 with hinge S241P; also called Antibody 162 02 C6 (derived from 2A5)
Turning to B7, the koff was 5.3e-06 s⁻¹ in assay [1], 0.00024 s⁻¹ in assay [2] and 0.028 s⁻¹ in assay [3].

B8: 162_02_F3 human IgG4 (antibody, V domains shown)
VH: B3 VH
VL: B6 VL with T93R
notes: human IgG4 with hinge S241P; also called Antibody 162 02 F3 (derived from 2A5)
For the molecule B8, the koff in assay [1] is less than 1e-05 s⁻¹; in assay [2] it was 0.00033 s⁻¹; in assay [3] it was 0.088 s⁻¹.

B9: 161_01_H10 human IgG4 (antibody, V domains shown)
VH: B3 VH with K101P, E102V, T103W, Y104A, A105P, L106G
VL: B6 VL with N90Q, Q91S, T93S, G94T
notes: human IgG4 with hinge S241P; also called Antibody 161 01 H10 (derived from 2A5)
On to B9, for which the koff in assay [1] worked out at 2.5e-05 s⁻¹; in assay [2], 1.9e-06 s⁻¹; in assay [3], 0.0091 s⁻¹.

B10: 161_01_F6 human IgG4 (antibody, V domains shown)
VH: B3 VH with T103N, Y104I, L106N, T107R, Y108H
VL: B6 VL with N90Q, Q91S, T93S, G94T
notes: human IgG4 with hinge S241P; also called 160_01_F6; Antibody 161 01 F6, also known as 160 01 F6 (derived from 2A5)
Regarding B10, the koff in assay [1] is 2.8e-06 s⁻¹; in assay [2], 0.00171 s⁻¹; in assay [3], 0.0025 s⁻¹.

B11: 165_13_D4 human IgG4 (antibody, V domains shown)
VH: B1 VH with Q100T, K101V
VL: B1 VL
notes: human IgG4 with hinge S241P
For the molecule B11, the values for the koff in assay [1], in assay [2] and in assay [3] were 6.2e-07 s⁻¹, 3.7e-06 s⁻¹ and 0.004 s⁻¹, respectively.

B12: 161_01_A12 human IgG4 (antibody, V domains shown)
VH: B3 VH with K101P, E102T, T103A, Y104L, L106N
VL: B6 VL with N90Q, Q91S, T93S, G94T
notes: human IgG4 with hinge S241P; also called Antibody 161 01 A12 (derived from 2A5)
Take B12: the koff was found to be 1.3e-06 s⁻¹ in assay [1], 4.3e-06 s⁻¹ in assay [2] and 0.0042 s⁻¹ in assay [3].

B13: 161_01_C09 human IgG4 (antibody, V domains shown)
VH: B3 VH with K101L, E102P, T103Y, Y104L, L106Q
VL: B6 VL with N90Q, Q91S, T93S, G94T
notes: human IgG4 with hinge S241P; also called Antibody 161 01 C09 (derived from 2A5)
As to B13, the figures for the dissociation rate constant (koff) in assay [1], in assay [2] and in assay [3] were 1.17e-07 s⁻¹, 2.3e-07 s⁻¹ and 0.00029 s⁻¹, respectively.

B14: 162_02_C3 human IgG4 (antibody, V domains shown)
VH: B3 VH
VL: B6 VL with Q89M, N90Q, Q91H, T93D
notes: human IgG4 with hinge S241P; also called Antibody 162 02 C3 (derived from 2A5)
On to B14, for which the koff in assay [1] was found to be 1.49e-06 s⁻¹; in assay [2], 0.002 s⁻¹; in assay [3], 0.635 s⁻¹.
